Data reported in patent US20160083466A1 (Regeneron, published 2016).

T1: mouse IL-25 expressed with a C-terminal myc-myc-hexahistidine tag (mouse)
T1 construct: also called Mouse IL-25-MMH; mIL-25-MMH
T1 chain: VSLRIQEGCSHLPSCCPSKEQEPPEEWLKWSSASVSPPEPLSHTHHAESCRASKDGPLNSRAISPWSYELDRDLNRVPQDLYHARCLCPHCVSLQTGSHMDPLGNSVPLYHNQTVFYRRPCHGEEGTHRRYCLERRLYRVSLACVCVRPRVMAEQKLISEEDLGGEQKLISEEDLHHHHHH

T2: monkey IL-25 expressed with a C-terminal myc-myc-hexahistidine tag (M. fascicularis (cynomolgus monkey))
T2 construct: also called monkey IL-25-MMH; MfIL-25-MMH
T2 chain: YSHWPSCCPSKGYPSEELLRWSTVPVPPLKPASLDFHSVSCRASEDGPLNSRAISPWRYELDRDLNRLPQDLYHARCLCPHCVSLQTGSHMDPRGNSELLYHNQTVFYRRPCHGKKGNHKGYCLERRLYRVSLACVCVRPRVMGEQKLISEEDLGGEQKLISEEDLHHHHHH

T3: human IL-25 expressed with a C-terminal myc-myc-hexahistidine tag (human)
T3 construct: also called hIL-25-MMH; Human IL-25-MMH
T3 chain: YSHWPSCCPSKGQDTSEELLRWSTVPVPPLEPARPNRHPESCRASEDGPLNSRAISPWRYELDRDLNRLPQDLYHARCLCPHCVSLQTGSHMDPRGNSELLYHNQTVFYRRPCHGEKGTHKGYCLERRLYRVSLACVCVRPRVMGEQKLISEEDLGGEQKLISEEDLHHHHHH

T4: rat IL-25 expressed with a C-terminal myc-myc-hexahistidine tag (rat)
T4 construct: also called Rat IL-25-MMH
T4 chain: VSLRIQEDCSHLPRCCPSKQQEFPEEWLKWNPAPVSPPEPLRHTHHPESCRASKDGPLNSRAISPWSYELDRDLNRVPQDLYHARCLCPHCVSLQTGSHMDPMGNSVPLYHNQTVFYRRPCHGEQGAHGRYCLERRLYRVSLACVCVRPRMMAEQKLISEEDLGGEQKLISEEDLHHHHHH

T5: human IL-25 expressed with a C-terminal myc-myc-hexahistidine tag (human)
T5 construct: also called human IL-25-MMH; hIL-25-MMH
T5 chain: T3 chain

B1: H1M11009N (antibody, mouse IgG1, V domains shown)
VH: EVQLVESGGGLVEPGGSLRLSCVASGFTFSNAWMNWVRQAPGKGLEWVGHIERKTDGGTTDFAAPVKGRFTISRDDSKNTLYLQMNSLKTEDTAVYYCTTVGPYSVPFDYWGQGTLVTVSS
VL: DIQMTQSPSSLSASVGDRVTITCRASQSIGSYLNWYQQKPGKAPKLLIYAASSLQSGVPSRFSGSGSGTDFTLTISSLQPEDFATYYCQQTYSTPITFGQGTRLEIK
notes: H1M prefix = mouse IgG1 Fc
B2: H2aM10690N (antibody, V domains shown)
VH: QVQLVQSGAEVKKPGASVKVSCKASGYTFTSYGISWVRQAPGQGLEWMGWISAYNGNTNYAQKLQGRVTMTTDTSTSTAYMELRSLRSDDTAVYYCARVPITGTTWFDPWGQGTLVTVSS
VL: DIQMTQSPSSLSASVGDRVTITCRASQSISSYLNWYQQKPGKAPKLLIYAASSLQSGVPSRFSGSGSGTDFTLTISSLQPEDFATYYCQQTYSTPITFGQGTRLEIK
notes: also called H2M10690N
B3: H4H10883P (antibody, human IgG4, V domains shown)
VH: QVQLQESGPGLVKSSETLSLTCTVSGGSISSYYWSWIRQPPGKGLEWIGFIYYSGSTNYNPSLKSRVTFSVDTSKNHFSLKLNSVTATDTAVYYCARHYFDSGTYELGPFDYWGQGTLVTVSS
VL: DIVMTQSPDSLAVSLGERATINCKSSQNILLTSSNKNYLTWYQQKPGQPPKLLIYWASIRESGVPDRFSGSGSGTDFTLTISSLQAEDVALYFCQQYYITPFTFGPGTKVDIK
B4: H4H10907P (antibody, human IgG4, V domains shown)
VH: EVQLVESGGGLVQPGGSLRLSCAASGFTFSNYDIHWVRQVPGKGLEWISTIGSAGDTFYPGSVKGRFTISRENAKNSLYLQMNSLRAGDSAVYYCARGDNWNYVSWFFDLWGRGTLVTVSS
VL: DIQLTQSPSFLSTSVGDRVTITCWASQDISSFLAWYQQKPGKAPKLLIYAASVLQSGVPSRFSGSGSGTEFTLTISSLQPEDFATYYCQQVNSYPITFGQGTRLEIK
B5: H4H10871P (antibody, human IgG4, V domains shown)
VH: QVQLVQSGAEVMKPGASVKVSCKSSDFAFTTYGISWVRQAPGQGLEWMGWISAYNGNTNYEQRFQGRITMTTDTSTTTVYMELRSLRSDDTAVYYCARDPDYCSSNTCSDAFDLWGQGTMVTVSS
VL: DIQMTQSPSSLSASVRDRVTITCRASQGITNYLAWYQQKPGKVPKVLIYAASTLQSGVPSRFSGSGSGTEFTLAISSLQPEDVATYFCQQYGSAPWTFGQGTKVEIK
B6: H4H10897P (antibody, human IgG4, V domains shown)
VH: QVQLQESGPGLVKPSETLSLTCTVSGGSISDYYWSWIRQPPGKGLEWIGHIYYSGSTNHNPSLKSRVAISVDTSKNQFSLRLYSVTAADTAVYYCARDGYSSSSGFYYFGMDVWGQGTTVTVSS
VL: DIQLTQSPSFLSASVGDRVTITCWASQDINSYLAWYQQKPGKAPKLLIFAASTLQGGVPSRFSGSGSGTEFTLTISSLQPEDFATYYCQHLSSFPPTFGQGTRLEIK
B7: H4H10876P (antibody, human IgG4, V domains shown)
VH: QVQLVQSGAEVKKPGASVKVSCKASEYTFSNYGISWVRQAPGQGLEWLGWIGAYSGFTKYAQKVQDRITMTTDASTTTAYMELRNLRSDDTAVYYCARVGTGTDSYFDFWGQGTLVTVSS
VL: DIQMTQSPSSLSASVGDRVTITCRASQNINSHLNWYQQKPGKAPKLLIYTASSLQSGVPLRFSGSGSGTDFTLTISSLQPEDFGIYICQQTYITPLTFGGGTKVEIK
B8: H4H10905P (antibody, human IgG4, V domains shown)
VH: QVQLVQSGAEVKKPGTSVKVSCKASGYTFTNYGISWVRQAPGQGLEWLGWISAYNDNTDYAQKLQARVTMTTDTFTSTAYMDLRSLRSDDTAVYYCARVPITGTTSSFDFWGQGTLVTVSS
VL: DIQMTQSPSSLSASVGDRVTISCRASQTIYSYLNWFQQKPGKAPKLLIYDASSLQSGVPSRFSGSGSGTHFTLTISSLQPEDFATYFCQQTYSTPLTFGGGTKVEIK
B9: H4H10863P (antibody, human IgG4, V domains shown)
VH: QVQLVQSGAEVKKPGASVKVSCKASGYTFSSYGISWVRQAPGQGLEWMGWISAYNDNTQYAQKFQGRVTMTTDTSTSTAYMELRSLRSDDTAVYYCARVPLQWFGESFDHWGQGTLVTVSS
VL: DIQMTQSPSSLSASVGDRVTITCRASQDINNYLNWFQQKPGKAPKLLIFSTSSLQSGVPSRFSGSGSGTDFTLTISSLQSEDFATYYCQQTFITPLTFGGGTKVEIK
B10: H2M10690N (antibody, V domains shown)
VH: B2 VH
VL: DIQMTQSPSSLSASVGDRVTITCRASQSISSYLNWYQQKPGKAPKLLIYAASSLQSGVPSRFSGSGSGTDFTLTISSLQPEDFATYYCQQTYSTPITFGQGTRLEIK
notes: also called H2aM10690N

Target: T1, mouse IL-25 expressed with a C-terminal …
Experiment: SPR Biacore, antibody captured, 25C;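 as to 100 nM Rat IL-25-MMH Bound (RU): purified anti-IL-25 antibodies were tested by real-time surface plasmon resonance on a Biacore 4000, with rate constants obtained from sensorgram fits to a 1:1 binding model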

| Binder | 100 nM Mouse IL-25-MMH Bound (RU) | binding result | Kd | koff | kon | t½ |
| --- | --- | --- | --- | --- | --- | --- |
| B1 | 0 RU | no binding (tested: 100 nM) | – | – | – | – |
| B2 | 17 RU | – | 82.3 nM | 0.00319 s⁻¹ | 38800 M⁻¹ s⁻¹ | 4 min |

Target: T2, monkey IL-25 expressed with a …
Experiment: SPR Biacore, captured mAb, 25°C;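 as to 100 nM Human IL-25-MMH Bound (RU): biacore 4000 SPR with IL-25-MMH as analyte over purified anti-IL-25 antibodies, association and dissociation rates derived from fitting sensorgrams to a 1:1 binding model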;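 as to 100 nM Monkey IL-25-MMH Bound (RU): Real-time surface plasmon resonance on a Biacore 4000, with IL-25-MMH binding to purified anti-IL-25 antibodies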
Method: (§1) Equilibrium dissociation constants (KD values) for IL-25 binding to purified anti-IL-25 antibodies were determined using a real-time surface plasmon resonance biosensor assay on a Biacore 4000 instrument (GE Healthcare). […] All the IL-25 reagents were expressed with a C-terminal myc-myc-hexahistidine tag (referred to herein as “IL-25-MMH”). […] Kinetic association (kₐ) and dissociation (kd) rate constants were determined by fitting the real-time sensorgrams to a 1:1 binding model using Scrubber 2.0c curve fitting software.

| Binder | 100 nM Monkey IL-25-MMH Bound (RU) | Kd | koff | kon | t½ |
| --- | --- | --- | --- | --- | --- |
| B3 | 58 RU | ≤ 0.00965 nM | ≤ 1e-05 s⁻¹ | 1.04e+06 M⁻¹ s⁻¹ | 19.2 h |
| B4 | 43 RU | 0.0485 nM | 6.74e-05 s⁻¹ | 1.39e+06 M⁻¹ s⁻¹ | 2.85 h |
| B5 | 42 RU | 0.0965 nM | 6.06e-05 s⁻¹ | 628000 M⁻¹ s⁻¹ | 3.18 h |
| B6 | 42 RU | 0.0749 nM | 8.43e-05 s⁻¹ | 1.13e+06 M⁻¹ s⁻¹ | 2.28 h |
| B7 | 51 RU | 0.218 nM | 7.18e-05 s⁻¹ | 329000 M⁻¹ s⁻¹ | 2.68 h |
| B8 | 54 RU | 0.186 nM | 7.77e-05 s⁻¹ | 417000 M⁻¹ s⁻¹ | 2.48 h |
| B9 | 39 RU | 0.199 nM | 6.83e-05 s⁻¹ | 343000 M⁻¹ s⁻¹ | 2.82 h |

Target: T3, human IL-25 expressed with a C-terminal …
Experiment: BLI Octet, hIL-25-MMH captured on anti-Penta-His sensor, 25C
Method: Binding competition between anti-IL-25 monoclonal antibodies was determined using a real time, label-free bio-layer interferometry assay on an Octet QK384 biosensor (Pall ForteBio Corp.).
The biosensors were washed in HBST kinetics buffer in between every step of the experiment. The real-time binding response was monitored during the course of the experiment and the binding response at the end of every step was recorded.

| Binder | 50 ug/mL mAb-1 Binding (nm) |
| --- | --- |
| B1 | 1.42 nm |
| B2 | 1.38 nm |

Target: T4, rat IL-25 expressed with a C-terminal …
Experiment: SPR Biacore, antibody captured, 25C;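 as to 100 nM Rat IL-25-MMH Bound (RU): purified anti-IL-25 antibodies were tested by real-time surface plasmon resonance on a Biacore 4000, with rate constants obtained from sensorgram fits to a 1:1 binding model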

| Binder | 100 nM Rat IL-25-MMH Bound (RU) | Kd | koff | kon | t½ |
| --- | --- | --- | --- | --- | --- |
| B1 | -1 RU | – | – | – | – |
| B2 | 18 RU | 103 nM | 0.0095 s⁻¹ | 91800 M⁻¹ s⁻¹ | 1.2 min |

Target: T3, human IL-25 expressed with a C-terminal …
Experiment: competition ELISA, 2 nM hIL-25-MMH binding to coated hIL-17RB-hFc
Method: Data analysis was performed using a sigmoidal dose-response model within Prism™ software (GraphPad). […] The absorbance values of the wells containing the highest concentration for each antibody were used to determine the percent maximum blockade.

| Binder | % Maximum blocking of 200 nM antibody | IC50 |
| --- | --- | --- |
| B2 | 70% | 31 nM |

Target: T5, human IL-25 expressed with a C-terminal …
Experiment: SPR Biacore, captured mAb, 37°C
Method: as §1

| Binder | 100 nM Human IL-25-MMH Bound (RU) | Kd | koff | kon | t½ |
| --- | --- | --- | --- | --- | --- |
| B3 | 74 RU | 0.0304 nM | 4.8e-05 s⁻¹ | 1.58e+06 M⁻¹ s⁻¹ | 4.02 h |
| B4 | 47 RU | 0.0375 nM | 4.45e-05 s⁻¹ | 1.19e+06 M⁻¹ s⁻¹ | 4.32 h |
| B5 | 49 RU | 0.0276 nM | 3.18e-05 s⁻¹ | 1.15e+06 M⁻¹ s⁻¹ | 6.05 h |
| B6 | 48 RU | 0.218 nM | 0.000226 s⁻¹ | 1.04e+06 M⁻¹ s⁻¹ | 0.85 h |
| B7 | 60 RU | 0.0944 nM | 5.93e-05 s⁻¹ | 628000 M⁻¹ s⁻¹ | 3.25 h |
| B8 | 55 RU | 0.149 nM | 0.00012 s⁻¹ | 809000 M⁻¹ s⁻¹ | 1.6 h |
| B9 | 46 RU | 0.128 nM | 7.78e-05 s⁻¹ | 606000 M⁻¹ s⁻¹ | 2.48 h |
| B10 | 39 RU | 61.4 nM | 0.00844 s⁻¹ | 137000 M⁻¹ s⁻¹ | 0.0233 h |

Target: T5, human IL-25 expressed with a C-terminal …
Experiment: SPR Biacore, captured mAb, 25°C;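 as to 100 nM Human IL-25-MMH Bound (RU): biacore 4000 SPR with IL-25-MMH as analyte over purified anti-IL-25 antibodies, association and dissociation rates derived from fitting sensorgrams to a 1:1 binding model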;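 as to 100 nM Monkey IL-25-MMH Bound (RU): Real-time surface plasmon resonance on a Biacore 4000, with IL-25-MMH binding to purified anti-IL-25 antibodies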
Method: as §1

| Binder | 100 nM Human IL-25-MMH Bound (RU) | Kd | koff | kon | t½ |
| --- | --- | --- | --- | --- | --- |
| B3 | 56 RU | ≤ 0.0142 nM | ≤ 1e-05 s⁻¹ | 706000 M⁻¹ s⁻¹ | 19.2 h |
| B4 | 40 RU | 0.0883 nM | 6.5e-05 s⁻¹ | 736000 M⁻¹ s⁻¹ | 2.97 h |
| B5 | 38 RU | 0.0851 nM | 6.38e-05 s⁻¹ | 749000 M⁻¹ s⁻¹ | 3.02 h |
| B6 | 39 RU | 0.126 nM | 7.87e-05 s⁻¹ | 623000 M⁻¹ s⁻¹ | 2.45 h |
| B7 | 45 RU | 0.124 nM | 4.78e-05 s⁻¹ | 386000 M⁻¹ s⁻¹ | 4.03 h |
| B8 | 49 RU | 0.228 nM | 0.000109 s⁻¹ | 478000 M⁻¹ s⁻¹ | 1.77 h |
| B9 | 34 RU | 0.279 nM | 7.25e-05 s⁻¹ | 260000 M⁻¹ s⁻¹ | 2.65 h |
| B10 | 32 RU | 36.2 nM | 0.0029 s⁻¹ | 80200 M⁻¹ s⁻¹ | 0.0667 h |

Target: T1, mouse IL-25 expressed with a C-terminal …
Experiment: SPR Biacore, antibody captured, 37C;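 as to 100 nM Mouse IL-25-MMH Bound (RU): Real-time sensorgrams of IL-25-MMH binding to purified anti-IL-25 antibodies, rate constants obtained by fitting a 1:1 binding model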
Method: as §1

| Binder | 100 nM Mouse IL-25-MMH Bound (RU) | Kd | koff | kon | t½ |
| --- | --- | --- | --- | --- | --- |
| B1 | 2 RU | – | – | – | – |
| B2 | 27 RU | 81.7 nM | 0.00778 s⁻¹ | 95300 M⁻¹ s⁻¹ | 1.5 min |

Target: T4, rat IL-25 expressed with a C-terminal …
Experiment: SPR Biacore, antibody captured, 37C;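 as to 100 nM Mouse IL-25-MMH Bound (RU): Real-time sensorgrams of IL-25-MMH binding to purified anti-IL-25 antibodies, rate constants obtained by fitting a 1:1 binding model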

| Binder | 100 nM Rat IL-25-MMH Bound (RU) | Kd | koff | kon | t½ |
| --- | --- | --- | --- | --- | --- |
| B1 | 3 RU | – | – | – | – |
| B2 | 20 RU | 115 nM | 0.0193 s⁻¹ | 168000 M⁻¹ s⁻¹ | 36 s |
